Experimental data published in patent US20230226096A1 (Orna Therapeutics, Inc., priority 2020, published 2023).

B1: Symapivirus A (nucleic acid)
DNA: TTGGGAAATCCCCAATGCTTCTTTCAACACCGCCTGACTATGCGGTGGCGCTTCGGCTCAAACAACTAGTCACTTCCCCCTCTTAACTACTACCCAAGACTTCTAACTACCCTTACCTACTTATTTGTCTAAATTTCAAACTTTTATTCTCACGCGTCTTATAAACATCTTTTCTATTTGTTATGGTATGTTTTGTGATTTGTGTGGTGTATTTCATTTAATGGGATCTAGTGGACCGTGCCCCGGTTGGGTATCCGCTCCCTTTAAATGTTTGCAAGCACTCTTGACATTATAACCTATCATTTAGTTTACTTGTTTGTATGATCGTATTTCTGAATCGTAACATTTATGCAATTCTTTCTCGCCGAGACTTGTCTAGGAGATAAAGTTCCTGCATATTTAGTGTTACGGTTGTATAATGGAGACTTAGATAGCTTCACACTGAGGACGCTTTTTCGCTATCCTTTTGACCTGATTCAGGCCAGTGTGGAGTTAATGATTGTATGGATGGGCCCTACAATTTGTCTAAGACTTGGTGATAGCCTCGCGGCCGCTCGCCATTTATACAACTGAATAGCGGTTGAAACTCTCT
modifications: Symapivirus A
B2: Porcine Kobuvirus GS2 (nucleic acid, listed as Kobuvirus sp.)
DNA: TTTGAAAAGGGGGTGGGGGGGCCTCGGCCCCCTCACCCTCTTTTCCGGTGGCCATTCGCCCGGGCCACCGTTACTCCACTCCACTCCTTCGGGACTGGTTTGGAGGAACACAACAGGGCTTCCCATCCCTGTTTACCCTTTATTCCATCATCCTTTCCCCAAGTTTACCCTATCCACACCCCACTGACTGACTCCTTTGGATTTTGACCTCAGAATGCCTATTTGACCTCCCACTCGCCTCTCCCTTTTCGGATTGCCGGTGGTGCCTGGCGGAAAAAGCACAAGTGTGTTGCAGGCTACCAAACTCCTACCCGACAAAGGTGCGTGTCCGCGTGCTGAGTAATGGGATAGGAGATGCCTACAACAGGCTCGCCCATGAGTAGAGCATGGACTGCGGTGCATGTGACTTCGGTCACCACGGGCATAGCATTGCTCACCCGTGAATCAAGTCATCGAGATTTCTCTGACCTCTGAAGTGCACTGTGGTTGCGTGGCTGGGAATCCACGCTTGACCATGTACTGCTTGATAGAGTCGCGGCTGGCCGACTCATGGGTTAAAGTCAGTTGACAAGACAC
B3: Aichivirus Rt386 (nucleic acid, listed as Aichivirus sp.)
DNA: ACTCCATTCAGCTTCTTCGGAACCTGTTCGGAGGAATTAAACGGGCACCCACTTTCCTGTCCTCTCCCCCTTTCTGCAACTCAAGTGTGTGCTCGTAATCCTGACTCCCACGGGTTGACCGCCCCGTTGGTGAACAAACAGCTAGGTCATTCCCTCCCTACCCCTGGGCGCCATTTCAGTGGCGTTCATATCCTCCCCCCAGCCTGACGTGTCACAGGCTGTGCAAAGTCCCCGCGAAAGCTGCTCACGTGGCAATTGTGGGTCCCCCCTTTGTGAAGGAACCGAGTCTTTCTCCCTTAAGGCTAGACCCCTGTGTGAACTCACAGGTGGCAACTAGTGGTTCCACTGCATGCTCCCGACCTCGGCCGCGGAGTGCTGTTCCCCAAGTCGTGACACTGACCTCCACTTATGTGCCTGGCAAGCATATCTGAGAAGATGTTCCGCTGTGGCTGCCAAACCTGGTAACAGGTGCCCCAGTGCGTGTAGTCTTCTTCCGTCTCCGGACGGTAAGTGTGTGGTAAAGATGCGGCGTAAGGTTCAAGTGCCAACGCCCTGGAAGGGATGACCCTTCTACTGCCCTAGGAATGCCGCGCAGGTACCCCAGGTTCGCCTGGGATCTGAGCGCGGGCTAATTGTCTACGGGTAGTTTCATTTCCCTCTCTTTTCACTGGCATC
B4: Aichivirus ETHP4 (nucleic acid, listed as Aichivirus sp.)
DNA: TTACTCCATTCAGCTTCTTCGGAACCTGTTCGGAGGAATTAAACGGGCACCCATACACCCCCACCCCCTTTTTGCAACTTAAGTATGTGTGCTCGTGATCTTGACTCCCACGGAATGGATCGATCCGCTGGAGAACAAACTGCTAGATCCACATCCTCCCTTCCCTTGGGAGGACCTCGGTCCTCCCACATCCTCCCCCCAGCCTGACGTACCACAGGCTGTGTGAAGCCCCCGCGAAAGCCGCTCACGTGGCAATTGTGGGTCCCCCCTTCATTAAGACACCAGGTCTTTCCTCCTTAAGGCTAGTCCCGATGTGTGAATTCACATTGGGCAACTAGTGGTGTCACTGTGCGCTCCCAATCTCGGCCGCGGAGTGCTGTTCCCCAAGCCAAACCCCTGGCCCTTCACTATGTGCCTGGCAAGCATATCTGAGAAGGTGTTCCGCTGTGGCTGCCAGCCTGGTAACAGGTGCCCCAGTGTGCGTAACCTTCTTCCGTCTTCGGACGGTAGTGATTGGTTAAGATTTGGCGTAAGGTTCATGTGCCAACGCCCTGTGCGGGATGAAACCTCTACTACCCTAGGAATGCCAGGCAGGTACCCCACCCTCGGGTGGGATCTGAGCCTGGGCTAATTGTCTACGGGTAGTTTCATTTCCAATTCTTCTATGTCGGAGTC
B5: Aichivirus DVI2169 (nucleic acid, listed as Aichivirus sp.)
DNA: TACTCCATTCAGCTTCTTCGGAACCTGTTCGGAGGAATTAAACGGGCACCCATACACCCCCACCCCCTTTTCTGCAACTTAAGTATGTGTGCTCGTAATCTTGACTCCCACGGAATGGATCGATCCGCTGGAGAACAAACTGCTAGATCCACATCCTCCCTTCCCCTGGGAGGACCCCGGTCCTCCCACATCCTCCCCCCAGCCTGACGTATCACAGGCTGTGTGAAGTCCCCGCGAAAGCTGCTCACGTGGCAATTGTGGGTCCCCCCTTCATCAAGACACCAGGTCTTTCCTCCTTAAGGCTAGCCCCGATGTGTGAATTCACATTGGGCAACTAGTGGTGTCACTGTGCGCTCCCAATCTCGGCCGCGGAGTGCTGTTCCCCAAGCCAAACCCCTGGCCCTTCACTATGTGCCTGGCAAGCATATCTGAGAAGGTGTTCCGCTGTGGCTGCCAGCCTGGTAACAGGTGCCCCAGTGTGCGTAACCTTCTTCCGTCTCCGGACGGTAGTGATTGGTTAAGATTTGGTGTAAGGTTCATGTGCCAACGCCCTGTGCGGGATGAAACCTCTACTGCCCTAGGAATGCCAGGCAGGTACCCCACCTTCGGGTGGGATCTGAGCCTGGGCTAATTGTCTACGGGTAGTTTCATTTCCAATTCTTTTATGTCGGAGTC
B6: Aichivirus DVI2321 (nucleic acid, listed as Aichivirus sp.)
DNA: GCTTCTTCGGAACCTGTTCGGAGGAATTAAACGGGCACCCATACACCCCCACCCCCTTTTCTGCAACTTAAGTATGTGTGCTCGTAATCTTGACTCCCACGGAATGGATCGATCCGCTGGAGAACAAACTGCTAGATCCACATCCTCCCTTCCCCTGGGAGGACCCCGGTCCTCCCACATCCTCCCCCCAGCCTGACGTATCACAGGCTGTGTGAAGTCCCCGCGAAAGCTGCTCACGTGGCAATTGTGGGTCCCCCCTTCATCAAGACACCAGGTCTTTCCTCCTTAAGGCTAGCCCCGATGTGTGAATTCACATTGGGCAACTAGTGGTGTCACTGTGCGCTCCCAATCTCGGCCGCGGAGTGCTGTTCCCCAAGCCAAACCCCTGGCCCTTCACTATGTGCCTGGCAAGCATATCTGAGAAGGTGTTCCGCTGTGGCTGCCAGCCTGGTAACAGGTGCCCCAGTGTGCGTAACCTTCTTCCGTCTCCGGACGGTAGTGATTGGTTAAGATTTGGTGTAAGGTTCATGTGCCAACGCCCTGTGCGGGATGAAACCTCTACTGCCCTAGGAATGCCAGGCAGGTACCCCACCTTCGGGTGGGATCTGAGCCTGGGCTAATTGTCTACGGGTAGTTTCATTTCCAATTCTTTTATGTCGGAGTC
B7: Aichivirus rat08 (nucleic acid, listed as Aichivirus sp.)
DNA: TACTCCATTCAGCTTCTTCGGAACCTGTTCGGAGGAATTAAACGGGCACCCACTTTCCTGTCCTCTCCCCTTTTCTGTAACTCCAAGTGTGTGCTCGTAATCTTGACTCCCGCGGATTGACCGCTCCGCTGGTGAACAAACTGCTAGGTCATCTCCTCCCCACCCTTGGGCGTCCTTCCGGGCGTCCACACCCTCCCCCCAGCCTGACGTGTCACAGGCTGTACAAAGACCCCGCGAAAGCTGCTAACGTGGCAATTGTGGGTCCCCCCTTTGTAAAGGAACCGAGTCTTTCTCCCTTAAGGCTAGACCCCTGTGTGAATTCACAGGTGGCAACTAGTGGTTCCACTGCATGCTCCCGACCTCGGCCGCGGAGTGCTGTTCCCCAAGTCGTAACACTGACCTTCACTTATGTGCCTGGCAAGCATATCTGAGAAGATGTTCCGCTGTGGCTGCCAAACCTGGTAACAGGTGCCCCAGTGTGCGTAGTCTTCTTCCGTCTTCGGACGGTAGGTGTTAGGTAAAGATGCGGCGTAAGGTTCAAGTGCCAACGCCCTGGAAGGGATGACCCTTCTACTGCCCTAGGAATGCCGCGCAGGTACCCCAGGTTCGCCTGGGATCTGAGCGCGGGCTAATTGTCTACGGGTAGTTTCATTTCCCTCTTCTTCCACTGGCATC
B8: Aichivirus Goiania (nucleic acid, listed as Aichivirus sp.)
DNA: ACTCCATTCAGCTTCTTCGGAACCTGTTCGGAGGAATTAAACGGGCACCCATACACCCCCATCCCCTTTTTTGCAACTTAAGTATGTGTGCTCGTAATCTTGACTCCCACGGAATGGATCGATCCGCTGGAGAACAAACTGCTAGATCCACATCCTCCCTCCCCCCTGGGAGGACCTCGGTCCTCCCACATCCTCCCCCCAGCCTGACGTATCACAGGCTGTGTGAAGCCCCCGCGAAAGCTGCTCACGTGGCAATTGTGGGTCCCCCCTTCATCAAGACACCAGGTCTTTCCTCCTTAAGGCTAGTCCCGATGTGTGAATTCACATCGGGCAACTAGTGGTGTCACTGTGCGCTCCCAATCTCGGCCGCGGAGTGCTGTTCCCCAAGCCAAACCCCTGGCCCTTCACTATGTGCCTGGCAAGCATATCTGAGAAGGCGTTCCGCTGTGGCTGCCAGCCTGGTAACAGGTGCCCCAGTGTGCGTAACCTTCTTCCGTCCCCGGACGGTAGTGATTGGTTAAGACTTGGCGTAAGGTTCATGTGCCAACGCCCTGTGCGGGATGAAACCTCTACTGCCCTAGGAATGCCAGGCAGGTACCCCACCTTCGGGTGGGATCTGAGCCTGGGCTAATTGTCTACGGGTAGTTTCATTTCTAATTCTTTCATGTCGGAGTC

tested on: HEK293 cells; assay type: cell-based, human; settings: luminescence from secreted Gluc in supernatant 24 hours after transfection of HEK293 cells; circular RNA encoding Gluc with the named IRES (UTR truncated to 675 nt)

Row | Molecule | Expression
1 | B1 | 1.27E+05
2 | B2 | 44200000
3 | B3 | 5.71E+07
4 | B4 | 1.78E+07
5 | B5 | 2.98E+06
6 | B6 | 6.63E+07
7 | B7 | 3.51E+07
8 | B8 | 1.66E+07
